We go through two substances from PMC12089766.

Some results are limits rather than exact numbers.

The target in test [1] is Arabidopsis cytosolic glyceraldehyde-3-phosphate dehydrogenase (GAPC1), recombinant, His-tagged (Arabidopsis thaliana) (UniProt P25858). Description: MST; GAPC1 labelled on its His tag (RED-tris-NTA 2nd Generation), 50 nM; cyclo(His-Pro) titrated; 50 mM Tris-HCl pH 8.0 with 1.6 mM NAD+; premium capillaries, Monolith X; binding from the spectral shift A670/A650.
Test [2] has the same target.
Test [3] has as its target human glyceraldehyde-3-phosphate dehydrogenase (GAPDH), recombinant, His-tagged (human) (UniProt P04406).
Test [4] concerns the target Arabidopsis cytosolic glyceraldehyde-3-phosphate dehydrogenase (GAPC1), recombinant, His-tagged (Arabidopsis thaliana) (UniProt P25858). The test is described as follows: nano-differential scanning fluorimetry (nanoDSF); about 0.8 ug protein per capillary in 50 mM Tris-HCl pH 8.0; ligands at 100 uM (cyclo(Tyr-Asp) also at 500 uM and 1 mM); ramp 2 °C/min, 20 to 90 °C; shift of the melting temperature against mock. On the technique in general: In DSF a fluorescence change marks the thermal transition of the protein.

UniProt P25858, sequence (P25858 whole entry): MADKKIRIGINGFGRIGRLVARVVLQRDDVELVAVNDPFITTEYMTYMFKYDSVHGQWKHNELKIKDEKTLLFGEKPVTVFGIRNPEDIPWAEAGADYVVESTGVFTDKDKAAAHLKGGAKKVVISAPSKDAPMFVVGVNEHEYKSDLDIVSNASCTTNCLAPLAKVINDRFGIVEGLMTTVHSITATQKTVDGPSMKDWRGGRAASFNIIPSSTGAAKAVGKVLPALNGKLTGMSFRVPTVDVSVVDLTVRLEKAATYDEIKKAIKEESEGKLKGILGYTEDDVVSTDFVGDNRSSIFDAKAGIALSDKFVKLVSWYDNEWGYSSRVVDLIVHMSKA
UniProt P04406, sequence (P04406 whole entry): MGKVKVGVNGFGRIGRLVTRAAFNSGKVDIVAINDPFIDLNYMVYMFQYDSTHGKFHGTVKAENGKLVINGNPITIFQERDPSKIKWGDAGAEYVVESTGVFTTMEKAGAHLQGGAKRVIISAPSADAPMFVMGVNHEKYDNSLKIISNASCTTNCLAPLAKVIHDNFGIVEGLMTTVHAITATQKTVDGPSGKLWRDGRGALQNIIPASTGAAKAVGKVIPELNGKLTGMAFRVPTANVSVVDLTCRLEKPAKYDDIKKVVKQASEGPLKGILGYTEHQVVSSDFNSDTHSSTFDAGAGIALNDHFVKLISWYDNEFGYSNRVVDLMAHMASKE

As for “cyclo(His-Pro), cyclo(L-histidyl-L-proline) (peptide)”, the Kd in test [1] is 40 µM. Also, the IC50 of inhibition of GAPC1 enzymatic activity (oxidation of glyceraldehyde-3-phosphate, reduction of NAD+ to NADH) in test [2] was 200 µM. For the same substance, the IC50 of inhibition of GAPDH enzymatic activity in test [3] came out at 70 µM. Also, the shift of the melting temperature at 100 μM ligand in test [4] was above 4 °C.

“cyclo(Tyr-Asp), cyclo(L-tyrosyl-L-aspartic acid) (peptide)”: in test [2], the IC50 of inhibition of enzymatic activity came to 1500 µM.

The Kd is a measure of binding affinity in units of concentration.
